{
  "source": "paper doi:10.1101/2022.12.07.519454",
  "about": "(bioRxiv, 2022)",
  "target": "T1, GST-tagged yeast Sin3 PAH2 protein (residues 402-473) (S. cerevisiae, UniProt P22579 402-473)",
  "T1 sequence (looked up)": "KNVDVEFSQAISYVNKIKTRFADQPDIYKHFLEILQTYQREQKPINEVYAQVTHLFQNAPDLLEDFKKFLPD",
  "experiment": "fluorescence polarisation",
  "data": [
    {"binder": "LDDDLGTAAAVLSNMR (peptide, UniProt P39001 516-531, looked up)", "note": "[unlabeled Ume6 SID peptide (Ume6 residues 516-531)]", "values": [
      {"measurement": "IC50", "result": "53.3 ± 2.4", "unit": "µM"},
      {"measurement": "Ki", "result": 11.4, "unit": "µM"}
    ]}
  ]
}
